Substitutions are numbered along the chain they refer to. Each block holds one binder with its values, some of them ahead of it.
Legend:
human MASP3-His [1] = target: T1, human MASP3-His (human, UniProt P48740-2 20-728); assay: SPR (Biacore 8K); antibody immobilized on CM5 chip, antigen as analyte
T1 construct: also called human MASP3 antigen; not shown: His tag added to the terminal
T1 sequence (looked up): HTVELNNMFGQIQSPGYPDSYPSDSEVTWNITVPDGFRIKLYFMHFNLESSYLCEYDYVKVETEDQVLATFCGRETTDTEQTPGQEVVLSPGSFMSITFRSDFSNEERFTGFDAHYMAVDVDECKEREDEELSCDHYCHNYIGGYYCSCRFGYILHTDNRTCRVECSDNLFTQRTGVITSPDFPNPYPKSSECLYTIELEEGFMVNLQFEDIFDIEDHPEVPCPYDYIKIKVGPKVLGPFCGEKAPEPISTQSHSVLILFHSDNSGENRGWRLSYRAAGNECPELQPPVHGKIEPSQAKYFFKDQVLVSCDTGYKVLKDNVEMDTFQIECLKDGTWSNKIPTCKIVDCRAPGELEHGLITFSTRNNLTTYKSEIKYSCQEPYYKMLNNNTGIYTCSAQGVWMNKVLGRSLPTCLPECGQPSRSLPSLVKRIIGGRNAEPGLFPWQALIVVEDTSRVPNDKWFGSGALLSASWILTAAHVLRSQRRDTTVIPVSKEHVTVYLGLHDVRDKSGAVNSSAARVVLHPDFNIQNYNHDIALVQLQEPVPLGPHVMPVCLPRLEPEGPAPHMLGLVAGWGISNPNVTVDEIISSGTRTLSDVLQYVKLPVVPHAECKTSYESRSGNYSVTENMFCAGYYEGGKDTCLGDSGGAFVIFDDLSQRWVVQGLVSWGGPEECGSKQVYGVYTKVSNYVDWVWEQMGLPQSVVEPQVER

monkey MASP3-His = target: T2, monkey MASP3-His (monkey); assay: as above
T2 construct: monkey species not further specified

mouse MASP3-His = target: T3, mouse MASP3-His (mouse, UniProt P98064-2 25-733); assay: as above
T3 construct: not shown: His tag added to the terminal
T3 sequence (looked up): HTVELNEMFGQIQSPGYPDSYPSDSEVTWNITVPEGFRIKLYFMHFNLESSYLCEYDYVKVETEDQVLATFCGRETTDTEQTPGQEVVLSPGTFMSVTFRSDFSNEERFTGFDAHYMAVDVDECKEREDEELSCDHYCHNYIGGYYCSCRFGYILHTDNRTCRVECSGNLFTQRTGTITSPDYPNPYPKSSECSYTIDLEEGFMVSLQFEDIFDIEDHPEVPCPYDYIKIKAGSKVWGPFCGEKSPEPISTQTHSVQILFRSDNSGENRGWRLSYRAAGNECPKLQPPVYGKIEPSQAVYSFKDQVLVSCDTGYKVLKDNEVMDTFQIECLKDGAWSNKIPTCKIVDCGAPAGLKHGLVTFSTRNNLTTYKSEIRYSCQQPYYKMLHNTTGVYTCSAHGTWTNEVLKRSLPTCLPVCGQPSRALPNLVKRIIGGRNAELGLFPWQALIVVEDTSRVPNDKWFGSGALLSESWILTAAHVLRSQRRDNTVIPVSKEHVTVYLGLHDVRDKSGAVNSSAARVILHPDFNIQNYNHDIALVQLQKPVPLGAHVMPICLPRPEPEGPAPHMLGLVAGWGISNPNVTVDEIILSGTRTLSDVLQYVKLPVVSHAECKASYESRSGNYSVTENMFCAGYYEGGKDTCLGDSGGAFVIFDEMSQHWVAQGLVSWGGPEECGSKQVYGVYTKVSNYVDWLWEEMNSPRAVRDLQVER

human MASP3-His [2] = target: T1, human MASP3-His; assay: cell-based or functional assay
[3] = target: T4, MASP3 in Factor D depleted human plasma (human, UniProt P48740-2 20-728); assay: cell-based or functional assay
T4 sequence (looked up): T1 sequence (looked up)

[4] = target: T5, human MASP2 (R444Q) - His (human, UniProt O00187 16-686); assay: ELISA; human MASP2 (R444Q)-His coated 0.1 ug/well, antibody titrated, goat anti-human IgG HRP
T5 construct: not shown: His tag at the C-terminus
T5 sequence (O00187 16-686 R444Q limits assumed): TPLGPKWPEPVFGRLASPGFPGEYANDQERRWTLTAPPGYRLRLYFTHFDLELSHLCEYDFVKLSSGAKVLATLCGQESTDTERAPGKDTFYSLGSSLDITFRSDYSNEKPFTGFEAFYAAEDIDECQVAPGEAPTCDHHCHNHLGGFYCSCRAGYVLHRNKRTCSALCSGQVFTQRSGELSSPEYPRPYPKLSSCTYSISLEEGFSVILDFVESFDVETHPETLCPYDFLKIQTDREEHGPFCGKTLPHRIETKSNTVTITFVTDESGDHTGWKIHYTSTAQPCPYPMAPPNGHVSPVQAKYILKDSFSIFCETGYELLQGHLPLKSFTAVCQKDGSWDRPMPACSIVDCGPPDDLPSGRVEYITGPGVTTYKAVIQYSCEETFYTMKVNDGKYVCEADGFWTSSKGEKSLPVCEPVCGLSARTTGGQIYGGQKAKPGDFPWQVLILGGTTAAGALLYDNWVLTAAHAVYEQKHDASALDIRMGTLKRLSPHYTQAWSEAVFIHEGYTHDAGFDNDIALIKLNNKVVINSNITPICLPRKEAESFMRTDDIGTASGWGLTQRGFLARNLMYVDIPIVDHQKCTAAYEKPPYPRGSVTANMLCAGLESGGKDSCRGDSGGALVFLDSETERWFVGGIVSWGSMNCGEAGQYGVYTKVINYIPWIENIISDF

[5] = target: MASP2 in normal human plasma (human, UniProt O00187 16-686); assay: cell-based or functional assay
Sequence of MASP2 in normal human plasma (O00187 16-686 limits assumed): as the sequence (O00187 16-686 R444Q limits assumed) above, with Q429R counted along it

B1: M3-K2-8 (antibody, V domains shown)
VH: QVQLVQSGAEVKKPGASVKVSCKASGYTFTGKWIEWVRQAPGQGLEWMGEILPGSGSTDYNERFKDRATFTADTSTSTAYMELSSLRSEDTAVYYCVRSEDLWGQGTLVTVSS
VL: DIVLTQSPDSLAVSLGERATINCKSSQNLFNSRTRKNYLAWFQQKPGQSPKLLIYWASTRESGVPDRFSGSGSGTDFTLTISSLQAEDVAVYYCKQSYIPFTFGGGTKVEIK
notes: Humanized M3-K2
- Kd (human MASP3-His [1]): 1.04 nM
- koff (human MASP3-His [1]): 0.000189 s⁻¹
- kon (human MASP3-His [1]): 182000 M⁻¹ s⁻¹
- Kd (monkey MASP3-His): 0.77 nM
- koff (monkey MASP3-His): 0.000137 s⁻¹
- kon (monkey MASP3-His): 178000 M⁻¹ s⁻¹
- Kd (mouse MASP3-His): 0.77 nM
- koff (mouse MASP3-His): 0.000137 s⁻¹
- kon (mouse MASP3-His): 178000 M⁻¹ s⁻¹
- IC50 (nM), inhibition of MASP3 enzyme activity (fluorescent tripeptide cleavage) (human MASP3-His [2]): 21.9 nM
- Inhibit hemolysis IC50 [3]: 2.11 nM

B2: M3-K1-6 (antibody, V domains shown)
VH: B1 VH with A68V, A79V
VL: B1 VL with L4M, N28S, F30L, R33V, N37T, F42Y, I99T, P100L, F101P
- IC50 (nM), inhibition of MASP3 enzyme activity (fluorescent tripeptide cleavage) (human MASP3-His [2]): 28.2 nM

B3: M3-K1-3 (antibody, V domains shown)
VH: B1 VH
VL: B1 VL with L4M, N28S, F30L, R33V, N37T, F42Y, S49P, I99T, P100L, F101P
- IC50 (nM), inhibition of MASP3 enzyme activity (fluorescent tripeptide cleavage) (human MASP3-His [2]): 24.2 nM

B6: M3-K1-5 (antibody, V domains shown)
VH: B1 VH with A68V, A79V
VL: B1 VL with L4M, N28S, F30L, R33V, N37T, F42Y, S49P, I99T, P100L, F101P
- IC50 (nM), inhibition of MASP3 enzyme activity (fluorescent tripeptide cleavage) (human MASP3-His [2]): 27.9 nM

B8: M3-K1-2 (antibody, V domains shown)
VH: B1 VH with M48I
VL: B1 VL with L4M, N28S, F30L, R33V, N37T, F42Y, I99T, P100L, F101P
- IC50 (nM), inhibition of MASP3 enzyme activity (fluorescent tripeptide cleavage) (human MASP3-His [2]): 31.2 nM

B9: M3-K2-5 (antibody, V domains shown)
VH: B1 VH with A68V, A79V
VL: EIVLTQSPATLSVSPGERATLSCKSSQNLFNSRTRKNYLAWFQQKPGQSPRLLIYWASTRESGIPARFSGSGSGTEFTLTISSLQSEDFAVYYCKQSYIPFTFGGGTKVEIK
- Inhibit hemolysis IC50 [3]: 3.41 nM

B10: M3-K1-1 (antibody, V domains shown)
VH: B1 VH with M48I
VL: B1 VL with L4M, N28S, F30L, R33V, N37T, F42Y, S49P, I99T, P100L, F101P
- IC50 (nM), inhibition of MASP3 enzyme activity (fluorescent tripeptide cleavage) (human MASP3-His [2]): 31.5 nM

B11: M3-K1-4 (antibody, V domains shown)
VH: B1 VH
VL: B1 VL with L4M, N28S, F30L, R33V, N37T, F42Y, I99T, P100L, F101P
- IC50 (nM), inhibition of MASP3 enzyme activity (fluorescent tripeptide cleavage) (human MASP3-His [2]): 29.9 nM

B12: M3-K2-6 (antibody, V domains shown)
VH: B1 VH with M48I
VL: B1 VL
notes: Humanized M3-K2
- Kd (human MASP3-His [1]): 1.45 nM
- koff (human MASP3-His [1]): 0.00025 s⁻¹
- kon (human MASP3-His [1]): 173000 M⁻¹ s⁻¹
- Kd (monkey MASP3-His): 0.887 nM
- koff (monkey MASP3-His): 0.000147 s⁻¹
- kon (monkey MASP3-His): 165000 M⁻¹ s⁻¹
- Kd (mouse MASP3-His): 0.887 nM
- koff (mouse MASP3-His): 0.000149 s⁻¹
- kon (mouse MASP3-His): 168000 M⁻¹ s⁻¹
- IC50 (nM), inhibition of MASP3 enzyme activity (fluorescent tripeptide cleavage) (human MASP3-His [2]): 29.5 nM
- Inhibit hemolysis IC50 [3]: 3.18 nM

B14: humM2mc51-1 (antibody, V domains shown)
VH: QVQLQESGPGLVKPSETLSLTCTVSGYSITSDYAWNWIRQPPGKKLEWMGYISYSGRTSYNPSLKSRITISRDTSKNQFSLKLSSVTAADTAVYYCSRHYGDYWGQGTLVTVSS
VL: EIVMTQSPATLSVSPGERATLSCKASQNVGTNVAWYQQKPGQSPRALIYSASYRYSGIPARFSGSGSGTEFTLTISSLQSEDFAVYFCHQYNSNPLTFGGGTKVEIK
notes: Humanized anti-MASP2 antibody; also called anti-MASP2 antibody humM2mc51-1; parent antibody humM2mc51-1
- EC50 [4]: 0.086 nM
- IC50 (nM), inhibition of complement C4b deposition (mannan-coated plate, 1% human plasma) [5]: 0.055 nM

Continued, in another order:

- IC50 (nM), inhibition of MASP3 enzyme activity (fluorescent tripeptide cleavage) (human MASP3-His [2]): 33.7 nM
B4: M3-K2-9 (antibody, V domains shown)
VH: B1 VH
VL: B1 VL with L4M

- IC50 (nM), inhibition of MASP3 enzyme activity (fluorescent tripeptide cleavage) (human MASP3-His [2]): 25.2 nM
B5: M3-K2-7 (antibody, V domains shown)
VH: B1 VH with M48I
VL: B1 VL with L4M

- IC50 (nM), inhibition of MASP3 enzyme activity (fluorescent tripeptide cleavage) (human MASP3-His [2]): 37 nM
B7: M3-K2-10 (antibody, V domains shown)
VH: B1 VH with A68V, A79V
VL: B1 VL

- Kd (human MASP3-His [1]): 1.34 nM
- koff (human MASP3-His [1]): 0.000218 s⁻¹
- kon (human MASP3-His [1]): 163000 M⁻¹ s⁻¹
- Kd (monkey MASP3-His): 0.86 nM
- koff (monkey MASP3-His): 0.000144 s⁻¹
- kon (monkey MASP3-His): 167000 M⁻¹ s⁻¹
- Kd (mouse MASP3-His): 0.86 nM
- koff (mouse MASP3-His): 0.000145 s⁻¹
- kon (mouse MASP3-His): 168000 M⁻¹ s⁻¹
- IC50 (nM), inhibition of MASP3 enzyme activity (fluorescent tripeptide cleavage) (human MASP3-His [2]): 26.4 nM
B13: M3-K2-11 (antibody, V domains shown)
VH: B1 VH with A68V, A79V
VL: B1 VL with L4M
notes: Humanized M3-K2
- Inhibit hemolysis IC50 [3]: 2.2 nM

- EC50 [4]: 0.085 nM
- IC50 (nM), inhibition of complement C4b deposition (mannan-coated plate, 1% human plasma) [5]: 0.05 nM
B15: humM2mc51-1-S93E (antibody, V domains shown)
VH: B14 VH
VL: B14 VL with S93E
notes: VL CDR3 mutant of humM2mc51-1

- EC50 [4]: 0.079 nM
- IC50 (nM), inhibition of complement C4b deposition (mannan-coated plate, 1% human plasma) [5]: 0.09 nM
B16: humM2mc51-1-N92S (antibody, V domains shown)
VH: B14 VH
VL: B14 VL with N92S
notes: VL CDR3 mutant of humM2mc51-1

- EC50 [4]: 0.072 nM
- IC50 (nM), inhibition of complement C4b deposition (mannan-coated plate, 1% human plasma) [5]: 0.11 nM
B17: humM2mc51-1-N92Q (antibody, V domains shown)
VH: B14 VH
VL: B14 VL with N92Q
notes: VL CDR3 mutant of humM2mc51-1

- EC50 [4]: 0.082 nM
- IC50 (nM), inhibition of complement C4b deposition (mannan-coated plate, 1% human plasma) [5]: 0.045 nM
B18: humM2mc51-1-ES93DA (antibody, V domains shown)
VH: B14 VH
VL: B14 VL with E1D, S93A
notes: Mutant of humM2mc51-1

Reference: EP4725501A1 (Staidson (Beijing) Biopharmaceuticals Co., Ltd., dated 2026)
